Measured values taken from patent US20240069022A1 (ASAHI KASEI, published 2024).

T1: recombinant ribosomal protein L7/L12 of Bacillus subtilis, tag fusion protein (Bacillus subtilis, UniProt P02394 1-123)
T1 sequence: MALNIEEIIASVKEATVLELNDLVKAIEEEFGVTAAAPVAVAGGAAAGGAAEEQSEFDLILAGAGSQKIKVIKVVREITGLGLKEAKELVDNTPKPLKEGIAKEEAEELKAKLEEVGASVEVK

T2: recombinant ribosomal protein L7/L12 of Pseudomonas aeruginosa, tag fusion protein (Pseudomonas aeruginosa, UniProt Q9HWC8 1-122)
T2 sequence: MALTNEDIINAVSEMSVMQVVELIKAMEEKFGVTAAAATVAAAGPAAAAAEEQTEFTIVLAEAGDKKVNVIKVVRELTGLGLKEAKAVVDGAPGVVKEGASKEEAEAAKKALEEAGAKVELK

T3: ribosome protein L7/L12 of Bacillus subtilis, native, in bacterial lysate (Bacillus subtilis, UniProt P02394 2-123)
T3 construct: also called BS; B. subtilis lysate
T3 sequence: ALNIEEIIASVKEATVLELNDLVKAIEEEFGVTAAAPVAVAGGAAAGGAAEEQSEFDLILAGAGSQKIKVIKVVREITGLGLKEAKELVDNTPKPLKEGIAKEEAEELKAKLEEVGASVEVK

T4: ribosome protein L7/L12 of Pseudomonas aeruginosa, native, in bacterial lysate (Pseudomonas aeruginosa, UniProt Q9HWC8 1-122)
T4 construct: also called PA; P. aeruginosa lysate
T4 sequence: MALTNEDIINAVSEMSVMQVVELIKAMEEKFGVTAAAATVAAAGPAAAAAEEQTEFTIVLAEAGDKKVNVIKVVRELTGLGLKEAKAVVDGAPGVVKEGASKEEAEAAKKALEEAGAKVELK


Legend:
[1] = target: T1, recombinant ribosomal protein L7/L12 of …; test: ELISA, recombinant L7/L12 (10 ng/mL) coated
Text: (§1) The thus-produced Specific Antibodies A to C (antibodies of the present invention) and Generic Antibodies A and B were used to obtain data on the reactivity with ribosome protein L7/L12 of plural genera of Enterobacteriaceae bacteria by means of ELISA. Seven species of Enterobacteriaceae bacteria were selected for the study: Escherichia coli (EC), Klebsiella pneumoniae (KP), Citrobacter freundii (CF), Enterobacter cloacae (ECL), Proteus mirabilis (PM), Salmonella enterica (SE), and Serratia liquefaciens (SL), which are frequently detected in food, beverage, environmental, or biological samples. Four species of bacteria other than Enterobacteriaceae (non-Enterobacteriaceae bacteria) were also selected for the study: Pseudomonas aeruginosa (PA), Staphylococcus aureus (SA), Bacillus subtilis (BS), and Enterococcus faecalis (EF), which are frequently detected in food, beverage, environmental, or biological samples. E. coli transformed with expression vectors incorporating DNA encoding the amino acid sequence of ribosomal protein L7/L12 of each of the above seven Enterobacteriaceae and four non-Enterobacteriaceae species were cultured using, e.g., LB medium, and the ribosomal protein L7/L12 was purified as a fusion protein by affinity columns using tag sequences derived from the expression vector.
(§2) 50 μL of 10 ng/mL solution of the ribosomal protein L7/L12 of each bacterial species was dropped into each well of a 96-well polystyrene plate for ELISA and solidified on the bottom of the plate. After washing each well three times with PBS-T (PBS with Tween 20), blocking treatment was performed with PBS containing 1% BSA (Bovine Serum Albumin). After blocking, the wells were washed three times with PBS-T, and 50 µL of 10 μg/mL solution of each of the Specific Antibodies A to C and Generic Antibodies A and B was dropped into each well for 1 hour for antigen-antibody reactions. After the reactions, the samples were washed three times with PBS-T, and then 0.5 μg/mL of HRP (Horse Radish Peroxidase) labeled secondary antibody (Goat Anti-mouse IgG: Goat Anti-mouse IgG), which is the enzyme for detection, was added dropwise. After the reaction, the wells were washed five times with PBS-T, and 100 μL of a mixture of tetramethylbenzidine (TMB) and hydrogen peroxide, the chromogenic substrate, was added dropwise to each well for the chromogenic reaction.

[2] = target: T2, recombinant ribosomal protein L7/L12 of …; test: ELISA, recombinant L7/L12 (10 ng/mL) coated
Text: as §1, §2

[3] = target: recombinant ribosomal protein L7/L12 of Escherichia coli, tag fusion protein (Escherichia coli, UniProt P0A7K2 1-121); test: ELISA, recombinant L7/L12 coated, antibody 10 ug/mL; +: A450 >=0.3
Chain of recombinant ribosomal protein L7/L12 of Escherichia coli, tag fusion protein (P0A7K2 whole entry, the tested form may be a part): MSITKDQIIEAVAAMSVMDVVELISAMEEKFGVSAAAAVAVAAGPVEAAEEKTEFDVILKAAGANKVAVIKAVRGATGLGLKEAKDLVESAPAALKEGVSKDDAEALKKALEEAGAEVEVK
Text: as §1, §2

[4] = target: T3, ribosome protein L7/L12 of Bacillus …; test: ELISA, bacterial lysate coated
Text: (§3) The thus-produced Specific Antibodies A to C (antibodies of the present invention) and Generic Antibodies A and B were used to obtain data on the reactivity with plural genera of Enterobacteriaceae bacteria and bacteria other than Enterobacteriaceae (non-Enterobacteriaceae bacteria) by means of ELISA. […] The seven species of Enterobacteriaceae bacteria and four species of non-Enterobacteriaceae bacteria described above were purchased and cultured from ATCC, prepared at 1×e⁸ cfu/mL each, and suspended in PBS. Each bacterium was lysed by sonication, and debris was removed by filtration through a filter with a 0.45-μm mesh opening to obtain the bacterial lysate of each bacterium.
(§4) 50 μL of the above bacterial lysate was dropped into each well of a 96-well polystyrene plate for ELISA and solidified on the bottom of the plate. After washing each well three times with PBS-T (PBS with Tween 20), blocking treatment was performed with PBS containing 1% BSA (Bovine Serum Albumin). After blocking, the wells were washed three times with PBS-T, and 50 μL of 10 μg/mL solution of each of the Specific Antibodies A to C and Generic Antibodies A and B was dropped into each well for 1 hour for antigen-antibody reactions. After the reactions, the samples were washed three times with PBS-T, and then 0.5 μg/mL of HRP (Horse Radish Peroxidase) labeled secondary antibody (Goat Anti-mouse IgG: Goat Anti-mouse IgG), which is the enzyme for detection, was added dropwise. After the reaction, the wells were washed five times with PBS-T, and 100 μL of a mixture of tetramethylbenzidine (TMB) and hydrogen peroxide, the chromogenic substrate, was added dropwise to each well for the chromogenic reaction.

[5] = target: T4, ribosome protein L7/L12 of Pseudomonas …; test: ELISA, bacterial lysate coated
Text: as §3, §4

[6] = target: T3, ribosome protein L7/L12 of Bacillus …; test: lateral-flow sandwich kit (a) on lysate; capture Specific Antibody A, gold-labelled detection Generic Antibody A

Row | Binder | binding result [1] | binding result [2] | binding result [3] | binding result [4] | binding result [5] | binding result [6]
1 | Specific Antibody C (EC162A3) (antibody, V domains shown) VH: QVQLQQSGTELAKPGASVQMSCKASGYTFTSYWMHWVKQRPGQGLEWIGYINPNTGYTEYNQQFKDKATLTADKSSSTAYMQLSSLTSEDSAVYYCANYFAWFGYWGQGTLVTVSA VL: DIKMTQSPSSMYASLGERVTVTCKASQDIYSYLNWFQQKPGKSPKTLIYRANRLVDGVPSRFSGSGSGQEYSLTISSLEHEDMGIYYCLQHDQHPYTFGSGTKLEIK | no binding (tested: Absorbance <0.3 at 10 ug/mL antibody) | no binding (tested: Absorbance <0.3 at 10 ug/mL antibody) | binds | no binding (tested: Absorbance <0.3 at 10 ug/mL antibody) | no binding (tested: Absorbance <0.3 at 10 ug/mL antibody) | –
2 | Generic Antibody A (PA51B2) (antibody, V domains shown) VH: QVQLQQPGSVLVRPGASVKLSCKPSGYTFTGSWMHWTKQRPGQGLEWIGEIHPYSGNTNYNEKFRVKATLTVDTSSSTTYVDLSSLTSDDSAVYYCASGDFDAGFTYWGQGTLVTVSA VL: DIVLTQSPASLAVSLGRRATISCKASQSVDYDGDSYMNWYQQKPGQPPKLLIYVASNLESGIPARFSGSGSGTDFTLNIHPVEEEDAATYYCQQTNEDPFTFGAGTKLELK | – | – | binds | – | – | –
3 | Generic Antibody B (CP141A190.1) (antibody, V domains shown) VH: QVQLQQPGAELVKPGASVKLSCKTSGYNFTSNWIHWVKQRPGQGLEWIGEINPSNGRANYNEKFKNKATLTVDKSSSTAFMHLSSLTSEDSAVYFCSRGDFDEGFTYWGQGTLVTVSA VL: QIVLTQSPAIMSASLGERVTMTCTASSNVNSDYLHWYQQKPGSSPRLWIYTTSNLASGVPTRFSGNGSGTSYSLTISSMEAEDAATYYCHQYHRSPRTFGGGTKLEIK | – | – | binds | – | – | –
4 | Specific Antibody A (EC50C1) (antibody, V domains shown) VH: QVQLQQSGAELAKPGASVKMSCKASGYTFTSYWMNWVKQRPGQGLEWIGYINPNTGYTEYDQKFKDKATLTADKSSSTAYMQLSSLTSEDSAVYYCARYWAYFEYWGQGTTLTVSS VL: DIKMTQSPSSMYASLGERVTITCKASQDINSYLSWFQQKPGKSPKTLIYRANRLVDGVPSRFSGSGSGQDYSLTISSLEYEDMGIYYCLQYDEFRTFGGGTKLEIK | no binding (tested: Absorbance <0.3 at 10 ug/mL antibody) | no binding (tested: Absorbance <0.3 at 10 ug/mL antibody) | binds | – | no binding (tested: Absorbance <0.3 at 10 ug/mL antibody) | no binding (tested: Visually negative)
5 | Specific Antibody B (EC149C3) (antibody, V domains shown) VH: QVQLQQSGAELVKPGASVKLSCKASDYTFTNFYIYWVKQRPGQGLEWIGEINPSNGYTTFNVKFKSKATLTVDKSSSTAYMQLSSLTSEDSAVYYCTRNYGGSRCAYWGQGTLVTVSA VL: DVLMTQTPLSLPVSLGDQASISCRSSQSIVHSNGNTYLEWYLQKPGQSPKLLIYKVSNRFSGVPDRFSGSGSGTDFTLKISRVEAEDLGVYYCFQGSHVPWTFGGGTKLEIK | no binding (tested: Absorbance <0.3 at 10 ug/mL antibody) | no binding (tested: Absorbance <0.3 at 10 ug/mL antibody) | – | no binding (tested: Absorbance <0.3 at 10 ug/mL antibody) | no binding (tested: Absorbance <0.3 at 10 ug/mL antibody) | –
